The source of these data is patent US10434074B2, “Peptide and small molecule agonists of EPHA and uses thereof” (CASE WESTERN RESERVE UNIVERSITY, priority 2004, dated 2019).

The test system of assay [1] is DU-145 cells. In words: Wound healing assay. The note with it: 12 hours. The class given is cell-based, human. As to the method:
FIGS. 2(A-E) illustrate EphA activation inhibited DU-145 cell migration. (A) Expression of c-Met is elevated in cell lines derived from more malignant prostate cancer. Total cellular proteins were immunoblotted with anti-human c-Met. An anti-tubulin blot was used as a control for protein loading. (B) In a modified Boyden chamber assay, DU-145 cells were placed in the upper chamber and allowed to migrate to the lower chamber containing indicated reagents. After 8 hours, cells were stained with crystal violet and cells remaining in the upper chamber were removed. Top panel: Cells migrated to the undersides of membrane were counted; six high power fields were counted. Results represent means±S.D. Representative fields were shown in the lower panel. (C) Ephrin-A1-Fc inhibits DU-145 cell migration when HGF/SF was uniformly presented in both sides of membranes. The experiment was carried out as described in A. (D) Inhibition of cell scattering by immobilized ephrin-A1 in a SOIL assay (Method). Ephrin-A1-Fc or control Fc was immobilized on 6-well culture dishes. Freshly confluent DU-145 cells on cover slips were transferred to the coated surfaces. Cells were stimulated with HGF/SF to induce migration off the cover slips to immobilized Fc or ephrin-A1-Fc. […] The wound healing was recorded prior to and 12 hours after the addition of Fc, ephrin-A1-Fc (1 μg/ml) and/or HGF/SF (20 ng/ml). […]

Assay [2] concerns DU-145 cells. In words: HGF/SF-induced cell scattering / EMT. It counts as cell-based, human. The protocol: FIGS. 4(A-B) illustrate EphA activation attenuated cell scattering induced by HGF/SF. DU-145 cells were cultured in the presence of indicated reagents. Cell morphology was recorded 24 and 48 hours after the initiation of treatments (A). Numbers of total cells and cells without contact with other cells were counted in 6-8 randomly chosen fields (B). * HGF/SF/Fc vs. HGF/SF/ephrinA1-Fc: p<10^−5.
Tumor cells scattering/detaching from primary tumors is considered as the first step in tumor metastasis. In addition to promoting cell migration and invasion, HGF/SF is known to disrupt cell-cell adhesion mediated by E-cadherin, induce epithelial-mesenchymal transition (EMT) and cause cell scattering. Therefore, we examined the effects of EphA2 activation on EMT and scattering induced by HGF/SF. DU-145 cells were treated with Fc (control) or ephrin-A1-Fc in the presence or absence of HGF/SF. Cell morphology was recorded 24 and 48 hours after the addition of stimuli (FIGS. 4A and B). In control Fc-treated cells, only about 5% of cells were found as individual cells with no direct contact with neighboring cells, while remaining cells aggregate to form colonies with typical epithelial morphology. […] Following 24 hour HGF treatment, most of cells underwent EMT characterized by detachment from each other and transformation into spindle-shaped fibroblastic morphology. […]

Assay [3] has as its target T1, EphA2 (Mus musculus, UniProt Q03145).
T1 construct: endogenous in cells; host or cells: primary keratinocytes from newborn (P1) mouse epidermis
Briefly: EphA activation and ERK1/2 in primary keratinocytes. The class given is cell-based. As to the method: (§1) FIGS. 43(A-C) illustrate EphA2 kinase is required for ephrin-A1-induced inhibition of ERK1/2 MAP kinase and growth suppression in primary keratinocytes. A) EphA kinase activation by ephrin-A1 in EphA2^+/+ and EphA2^+/− but not EphA2^−/− keratinocytes. Keratinocytes were isolated from newborn (P1) mice and cultured on matrigel-coated culture plates. They were stimulated with 1.0 μg/ml of ephrin-A1-Fc for 10 min. The unstimulated cells were used as control. EphA receptors including EphA2 were precipitated from the cell lysates using ephrin-A1-Fc, and were subjected to immunoblot analysis with rabbit polyclonal anti-phospho-EphA/B antibody. Membrane was stripped and blotted again for total EphA2. B) Ephrin-A1 stimulation leads to inactivation of ERK1/2 MAPK in EphA2^+/+ and EphA2^+/− but not EphA2^−/− keratinocytes. Total cell lysates were analyzed by immunoblot with the indicated antibodies. The band densities from p-ERK blot were normalized to the corresponding total ERK1 blot. The ratios of p-ERK between ephrin-A1-treated and untreated were shown in the lower panel. C). Ephrin-A1 stimulation inhibits clonal growth of EphA2^+/+ and EphA2^+/− but not EphA2^−/− keratinocytes. Primary keratinocytes were plated on 6-well plates coated with matrigel at 5,000 cells/well, and allowed to grow for 12 days in the presence of Fc (0.5 μg/ml) or ephrin-A1-Fc (1.0 μg/ml).
(§2) To determine cellular mechanisms underlying the increased susceptibility to skin tumorigenesis, primary keratinocytes were isolated and cultured from epidermis of neonatal (P1) mice. They were stimulated with ephrin-A1 fused to the heavy chain of human IgG1 (ephrin-A1-Fc). EphA kinases including EphA2 were precipitated with excess ephrin-A1-Fc, and blotted with antibody raised against phosphorylated dityrosine peptide that is highly conserved in the juxtamembrane region of all Eph kinases. Phosphorylation of this region has been correlated with Eph receptor activation.
(§3) Primary keratinocytes were isolated from neonatal mouse skin as described previously (Caldelari et al., 2000). Briefly, the entire P1 mouse skin was dissected and incubated with 5 U/ml dispase II (Boehringer Mannheim) overnight at 4° C. Epidermal layer was separated from dermal layer using forceps, minced and digested with 0.25% trypsin/0.05 mMEDTA. After neutralizing trypsin by washing with serum-containing medium, cells were filtered through sterile gauze pads, spun down and resuspended in serum-free keratinocytes culture medium (Gibco) containing pituitary extract, 5 ng/ml EGF, 100 U/ml penicillin, 0.1 mg/ml streptomycin, and 0.25 μg/ml amphotericin, and plated on 6-well plates precoated with 50 μg/ml matrigel. Cell stimulation with ephrin-A1-Fc, immunoprecipitation, and immunoblot were carried as described preciously (Miao et al., 2003; Miao et al., 2005).

In assay [4] the test system is EphA2. Described as above. It counts as cell-based, mouse. The protocol:
as §1, §2, §3

T1 sequence (Q03145 26-977): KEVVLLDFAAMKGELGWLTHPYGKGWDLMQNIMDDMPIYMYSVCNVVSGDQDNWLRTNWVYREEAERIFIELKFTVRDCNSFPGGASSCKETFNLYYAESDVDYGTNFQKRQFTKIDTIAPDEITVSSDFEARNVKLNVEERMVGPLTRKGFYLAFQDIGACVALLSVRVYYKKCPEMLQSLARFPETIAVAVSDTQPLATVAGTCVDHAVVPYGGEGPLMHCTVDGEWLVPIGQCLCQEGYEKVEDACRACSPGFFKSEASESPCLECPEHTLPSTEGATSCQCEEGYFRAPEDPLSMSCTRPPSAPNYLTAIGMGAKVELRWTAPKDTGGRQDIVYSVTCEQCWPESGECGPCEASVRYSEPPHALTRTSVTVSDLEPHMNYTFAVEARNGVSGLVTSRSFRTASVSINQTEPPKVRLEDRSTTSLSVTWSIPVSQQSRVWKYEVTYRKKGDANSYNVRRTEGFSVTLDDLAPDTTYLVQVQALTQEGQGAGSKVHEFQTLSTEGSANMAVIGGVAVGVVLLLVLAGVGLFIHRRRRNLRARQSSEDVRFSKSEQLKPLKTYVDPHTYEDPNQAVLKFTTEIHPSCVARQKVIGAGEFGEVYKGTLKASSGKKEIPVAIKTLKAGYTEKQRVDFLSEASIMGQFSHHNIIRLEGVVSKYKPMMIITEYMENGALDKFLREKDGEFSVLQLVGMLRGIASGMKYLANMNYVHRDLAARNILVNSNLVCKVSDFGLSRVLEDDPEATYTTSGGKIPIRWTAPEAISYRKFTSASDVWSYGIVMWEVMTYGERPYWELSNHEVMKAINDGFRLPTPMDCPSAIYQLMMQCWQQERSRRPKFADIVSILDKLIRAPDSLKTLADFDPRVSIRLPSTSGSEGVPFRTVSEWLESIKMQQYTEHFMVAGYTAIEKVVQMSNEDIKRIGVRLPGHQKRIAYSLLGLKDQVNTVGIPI

B1: ephrin-A1-Fc: ephrin-A1 dimerized by fusion to the heavy chain of human IgG1 (protein)
chain: DRHTVFWNSSNPKFRNEDYTIHVQLNDYVDIICPHYEDHSVADAAMEQYILYLVEHEEYQLCQPQSKDQVRWQCNRPSAKHGPEKLSEKFQRFTPFTLGKEFKEGHSYYYISKPIHQHEDRCLRLKVTVSGKITHSPQAHDNPQEKRLAADDPEVRVLHSIGHS
modifications: left off: a dimerising Fc or GST
notes: ephrin-A1 dimerized by fusion to the heavy chain of human IgG1
On to B1, for which the wound closing entry in the assay with DU-145 cells [1] (vs Fc) is given as “slowed down the speed of wound closing”. For the same molecule, the “wound closing with HGF/SF” value in the assay on DU-145 cells [1] (vs HGF/SF and Fc) was “the wound closing was also delayed”. For the same molecule, the “fraction of scattered cells” value in the assay with DU-145 cells [2] (24 hour HGF treatment, 95% with HGF and Fc) was 15%. Moreover, in the assay with DU-145 cells [2] (without HGF/SF), the cell morphology entry was “more compact cobblestone morphology”. Moreover, the ERK1/2 activities result is “intermediate response” in the assay with EphA2 [3] (heterozygous keratinocytes), “significantly attenuated” with EphA2 [3] (wild type keratinocytes) and “completely abolished the inhibitory effects” in the assay on EphA2 [4] (EphA2 homozygous deletion). In addition, the EphA2 activation entry with EphA2 [3] (wild type and heterozygous keratinocytes) is listed as “readily activated”. Also, the p-EphA/B signal entry in the assay with EphA2 [4] (EphA2-null keratinocytes) is “undetectable”.
